According to IntAct's records for PubMed 12386165:

B1: Solute carrier family 12 member 6 (Mus musculus), Q924N4-1 (parent)
chain: MHPPEATTKMSSVRFMVTPTKIDDIPGLSDTSPDLSSRSSSRVRFSSRESVPETSRSEPMSELSGATTSLATVALDPSSDRTSNPQDVTEDPSQNSITGEHSQLLDDGHKKARNAYLNNSNYEEGDEYFDKNLALFEEEMDTRPKVSSLLNRMANYTNLTQGAKEHEEAENITEGKKKPTKSPQMGTFMGVYLPCLQNIFGVILFLRLTWVVGTAGILQAFAIVLICCCCTMLTAISMSAIATNGVVPAGGSYFMISRALGPEFGGAVGLCFYLGTTFAAAMYILGAIEIFLVYIVPRAAIFRSDDALKESAAMLNNMRVYGTAFLVLMVLVVFIGVRYVNKFASLFLACVIVSILAIYAGAIKSSFAPPHFPVCMLGNRTLSSRHLDICSKTKEVDNMTVPSKLWGFFCNSSQFFNATCDEYFVHNNVISIQGIPGLASGIITENLWSNYLPKGEIIEKPSAKSSDVLGNLNHEYVLADITTSFTLLVGIFFPSVTGIMAGSNRSGDLKDAQKSIPIGTILAILTTSFVYLSNVVLFGACIEGVVLRDKFGDAVKGNLVVGTLSWPSPWVIVIGSFFSTCGAGLQSLTGAPRLLQAIAKDNIIPFLRVFGHSKANGEPTWALLLTAAIAELGILIASLDLVAPILSMFFLMCYLFVNLACALQTLLRTPNWRPRFRYYHWALSFMGMSICLALMFISSWYYAIVAMVIAGMIYKYIEYQGAEKEWGDGIRGLSLSAARFALLRLEEGPPHTKNWRPQLLVLLKLDEDLHVKHPRLLTFASQLKAGKGLTIVGSVIVGNFLENYGDALAAEQTIKHLMEAEKVKGFCQLVVAAKLKEGISHLIQSCGLGGMKHNTVVMGWPNGWRQSEDARAWKTFIGTVRVTTAAHLALLVAKNVSFFPSNVEQFSEGNIDVWWIVHDGGMLMLLPFLLKQHKVWRKCSIRIFTVAQLEDNSIQMKKDLATFLYHLRIEAEVEVVEMHDSDISAYTYERTLMMEQRSQMLRHMRLSKTERDREAQLVKDRNSMLRLTSIGSDEDEETETYQEKVHMTWTKDKYMASRGQKVKSMEGFQDLLNMRPDQSNVRRMHTAVKLNEVIVNKSHEAKLVLLNMPGPPRNPEGDENYMEFLEVLTEGLERVLLVRGGGSEVITIYS
B2: Solute carrier family 12 member 1 (Homo sapiens), Q13621 (parent)
chain: MSLNNSSNVFLDSVPSNTNRFQVSVINENHESSAAADDNTDPPHYEETSFGDEAQKRLRISFRPGNQECYDNFLQSGETAKTDASFHAYDSHTNTYYLQTFGHNTMDAVPKIEYYRNTGSISGPKVNRPSLLEIHEQLAKNVAVTPSSADRVANGDGIPGDEQAENKEDDQAGVVKFGWVKGVLVRCMLNIWGVMLFIRLSWIVGEAGIGLGVLIILLSTMVTSITGLSTSAIATNGFVRGGGAYYLISRSLGPEFGGSIGLIFAFANAVAVAMYVVGFAETVVDLLKESDSMMVDPTNDIRIIGSITVVILLGISVAGMEWEAKAQVILLVILLIAIANFFIGTVIPSNNEKKSRGFFNYQASIFAENFGPRFTKGEGFFSVFAIFFPAATGILAGANISGDLEDPQDAIPRGTMLAIFITTVAYLGVAICVGACVVRDATGNMNDTIISGMNCNGSAACGLGYDFSRCRHEPCQYGLMNNFQVMSMVSGFGPLITAGIFSATLSSALASLVSAPKVFQALCKDNIYKALQFFAKGYGKNNEPLRGYILTFLIAMAFILIAELNTIAPIISNFFLASYALINFSCFHASYAKSPGWRPAYGIYNMWVSLFGAVLCCAVMFVINWWAAVITYVIEFFLYVYVTCKKPDVNWGSSTQALSYVSALDNALELTTVEDHVKNFRPQCIVLTGGPMTRPALLDITHAFTKNSGLCICCEVFVGPRKLCVKEMNSGMAKKQAWLIKNKIKAFYAAVAADCFRDGVRSLLQASGLGRMKPNTLVIGYKKNWRKAPLTEIENYVGIIHDAFDFEIGVVIVRISQGFDISQVLQVQEELERLEQERLALEATIKDNECEEESGGIRGLFKKAGKLNITKTTPKKDGSINTSQSMHVGEFNQKLVEASTQFKKKQEKGTIDVWWLFDDGGLTLLIPYILTLRKKWKDCKLRIYVGGKINRIEEEKIVMASLLSKFRIKFADIHIIGDINIRPNKESWKVFEEMIEPYRLHESCKDLTTAEKLKRETPWKITDAELEAVKEKSYRQVRLNELLQEHSRAANLIVLSLPVARKGSISDLLYMAWLEILTKNLPPVLLVRGNHKNVLTFYS

Columns and labels:
[1] = variants of: B1; conditions: with oxsr1_mouse Oxsr1, Q6P9R2
Target sequence in this assay (Q6P9R2 whole entry): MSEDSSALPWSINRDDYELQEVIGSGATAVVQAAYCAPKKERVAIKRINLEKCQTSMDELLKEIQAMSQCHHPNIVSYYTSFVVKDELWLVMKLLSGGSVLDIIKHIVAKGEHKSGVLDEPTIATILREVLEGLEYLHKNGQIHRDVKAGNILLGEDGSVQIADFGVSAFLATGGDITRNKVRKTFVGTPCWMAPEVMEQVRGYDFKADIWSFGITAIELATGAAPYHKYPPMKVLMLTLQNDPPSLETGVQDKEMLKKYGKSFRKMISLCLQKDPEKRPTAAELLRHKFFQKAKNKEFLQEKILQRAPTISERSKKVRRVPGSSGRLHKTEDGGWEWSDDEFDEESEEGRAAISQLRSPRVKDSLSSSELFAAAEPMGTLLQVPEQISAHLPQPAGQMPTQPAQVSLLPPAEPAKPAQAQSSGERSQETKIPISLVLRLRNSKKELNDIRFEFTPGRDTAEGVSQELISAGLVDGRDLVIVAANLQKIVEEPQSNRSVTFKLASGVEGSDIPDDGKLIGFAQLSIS

[2] = variants of: B1; conditions: with stk39_mouse Stk39, Q9Z1W9
[3] = variants of: B2; conditions: with stk39_mouse Stk39, Q9Z1W9; remark: listed apart in the source
[4] = variants of: B2; conditions: with oxsr1_mouse Oxsr1, Q6P9R2; remark: listed apart in the source
Target sequence in this assay (Q6P9R2 whole entry): as above

Variant	effect of a mutation on the interaction [1]	effect of a mutation on the interaction [2]	effect of a mutation on the interaction [3]	effect of a mutation on the interaction [4]
K21A	decreasing interaction	decreasing interaction	–	–
P19A	decreasing interaction	decreasing interaction	–	–
F15A	decreasing interaction	decreasing interaction	–	–
I22A	decreasing interaction	decreasing interaction	–	–
R14A	decreasing interaction	decreasing interaction	–	–
V17A	decreasing interaction	decreasing interaction	–	–
V23A	–	–	decreasing interaction	decreasing interaction
F21A	–	–	decreasing interaction	decreasing interaction
R20A	–	–	decreasing interaction	decreasing interaction

The remaining lines, values ahead:

effect of a mutation on the interaction [1]	effect of a mutation on the interaction [2]	effect of a mutation on the interaction [3]	effect of a mutation on the interaction [4]	Variant
–	–	decreasing interaction	decreasing interaction	N27A
–	–	decreasing interaction	decreasing interaction	E28A
–	–	decreasing interaction	decreasing interaction	V25A
–	–	decreasing interaction	decreasing interaction	S24A
